The results in this text go back to the supplement of paper PMC10126150.

± gives the standard deviation of the averaged measurements.
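Further: ATP exposure 15 min at 22 °C before imaging.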

The test system of the series is ATP. The experiment in a line: switch fluorescence ratio, 500 uM ATP over buffer (Cy3 cluster intensity, sum of 5 cycles each) (fold (ratio)); higher = stronger signal-on switching upon ATP binding; sequences stand for … in TCGTCGGCAGCGTCAGATGTGTATAAGAGACAGTTTTTTTTTTTTTTTTTTTTTTTTT…TC. Particulars: aptamer strand: ATP DNA aptamer (quencher-CACCTGGGGGAGTATTGCGGAGGAAGG + anchor), 100 nM annealed; ATP concentration: 500 uM. A digest of the protocol: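 Five buffer/ATP imaging cycles were run on Cy3-labelled switching-strand clusters on a modified Illumina MiSeq flow-cell, with NaOH stripping and re-annealing between cycles. In each cycle, clusters annealed to 100 nM quencher-labelled ATP aptamer were imaged in selection buffer, then after 15 min with 500 uM ATP at 22 °C. Per cluster, the fluorescence ratio is summed target-cycle over summed buffer-cycle Cy3 intensity, averaged per switch-domain sequence. Only clusters within 100-1000 RFU were kept.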
On to GACATGTGGC, for which the switch fluorescence ratio is 1.03 ± 0.037.
As for TCAGCCAGC, the switch fluorescence ratio amounted to 1.06 ± 0.012.
AAATAGGTTT: the switch fluorescence ratio was found to be 1 ± 0.044.
With ACGCGTGAAG, the switch fluorescence ratio worked out at 1.03 ± 0.021.
Consider GGGTTGGAAG, for which the switch fluorescence ratio amounted to 1.02 ± 0.067.
On to ATATGTCTAG, for which the switch fluorescence ratio is 0.989 ± 0.01.
As for GTCACCAGGG, the switch fluorescence ratio is 1.58 ± 0.082.
Regarding AAGCAAAGGT, the switch fluorescence ratio turned out to be 1.02 ± 0.027.
As to CCATTATGGT, the switch fluorescence ratio amounted to 1.01 ± 0.03.
With GAGCAGGGGT, the switch fluorescence ratio amounted to 1.04 ± 0.063.
Take GGGCTTGGGT: the switch fluorescence ratio was determined as 1.08 ± 0.12.
AATGAGTTTG: the switch fluorescence ratio was 0.991 ± 0.019.
In the case of CGGCAGGCAG it was 1.04 ± 0.13; in that of TCATGTCGGT, 0.979 ± 0.017.
As to AGGTAATGTT, the switch fluorescence ratio turned out to be 1.01 ± 0.021.
In the case of CCTATATTAA it was 0.9853 ± 0.0066.
With TTCTGGTGAT, the switch fluorescence ratio stood at 0.999 ± 0.021.
On to ATAGCAGGGG, for which the switch fluorescence ratio turned out to be 1.11 ± 0.082.
Consider TCGTGGGAGC, for which the switch fluorescence ratio was 1.014 ± 0.0089.
Consider TTTACTAATA, for which the switch fluorescence ratio is 1.02 ± 0.014.
AGCGGGTGCC: the switch fluorescence ratio stood at 1.02 ± 0.039.
As to TTCAGGAATG, the switch fluorescence ratio stood at 1.01 ± 0.049.
In the case of CCTCTACTGG it was 1.12 ± 0.042.
For TTCTATTGGT, the switch fluorescence ratio is 0.9828 ± 0.0023.
As to TTCGTTTGTC, the switch fluorescence ratio turned out to be 1 ± 0.02.
For TTCCCGTGCT, the switch fluorescence ratio worked out at 1.022 ± 0.0076.
Take GTGACGAAGA: the switch fluorescence ratio is 1.033 ± 0.0065.
AAAGTCCATA: the switch fluorescence ratio is 1.01 ± 0.026.
For the sequence TATGGCAAGG, the switch fluorescence ratio was found to be 1.03 ± 0.051.
As to AAAAGTGACC, the switch fluorescence ratio worked out at 1.01 ± 0.045.
In the case of TCGCATTGAG it was 1.1 ± 0.011; in that of AGGCAGGGGG, 1.03 ± 0.021; in that of GTGGATATTT, 0.986 ± 0.015.
In the case of TGTAAGGGTT it was 0.994 ± 0.027; in that of AGTAGTAAGA, 1.01 ± 0.022; in that of TAGGGCATAT, 1.1 ± 0.073.
Regarding TGCAGGTTTT, the switch fluorescence ratio is 1.01 ± 0.054.
As to GCGGCATTGG, the switch fluorescence ratio is 1.04 ± 0.053.
In the case of GACGGTTGGG, the switch fluorescence ratio came out at 0.983 ± 0.026.
In the case of GCGCGTGAGC it was 1.061 ± 0.0011; in that of ATAGAGGTGG, 0.9979 ± 0.0022; in that of GAAGGTTGCG, 1.03 ± 0.056.
Regarding CATAAGATGC, the switch fluorescence ratio is 1.03 ± 0.027.
For GGTATAGGAT, the switch fluorescence ratio was determined as 0.991 ± 0.025.
With TAAGATTTTC, the switch fluorescence ratio is 0.973 ± 0.046.
Consider GACGTGCAGG, for which the switch fluorescence ratio was determined as 1.07 ± 0.11.
With TTATTATTAC, the switch fluorescence ratio was determined as 1.04 ± 0.062.
Take AGGTTTAGTT: the switch fluorescence ratio amounted to 0.993 ± 0.0065.
Consider ACGGTGGTGG, for which the switch fluorescence ratio is 1.12 ± 0.12.
For the sequence CTGTTTAGGA, the switch fluorescence ratio turned out to be 1.02 ± 0.053.
With GTATCGTACG, the switch fluorescence ratio is 0.984 ± 0.014.
Take CGACCGTAAA: the switch fluorescence ratio came out at 1.5 ± 0.14.
Consider TTACTTTGAA, for which the switch fluorescence ratio amounted to 1.01 ± 0.029.
TCCAACATTT: the switch fluorescence ratio came out at 1 ± 0.046.
ATATCTGAGT: the switch fluorescence ratio is 1.03 ± 0.016.
In the case of AACATGTCTC it was 1.01 ± 0.043; in that of ATGGGTGGGT, 0.994 ± 0.034.
In the case of ACCAATTCGC it was 1.06 ± 0.029; in that of GGGTTGGGTG, 1.01 ± 0.042; in that of CGCAGCCCAG, 1.58 ± 0.086.
In the case of GGTCGGGGAA it was 1.01 ± 0.042.
Turning to TTGGATTTAA, the switch fluorescence ratio amounted to 1.02 ± 0.012.
As to GCGAGTCATT, the switch fluorescence ratio worked out at 0.9845 ± 0.007.
In the case of GGGGTGTCTG it was 0.9792 ± 0.0074.
For TGCTCATTTT, the switch fluorescence ratio came to 0.992 ± 0.032.
In the case of CTTATCATAT it was 1.09 ± 0.1.
With ATGGTGTAGC, the switch fluorescence ratio came to 0.986 ± 0.016.
For GGAGGCATAT, the switch fluorescence ratio was 1.13 ± 0.039.
On to CTTTATTTAA, for which the switch fluorescence ratio was found to be 1.02 ± 0.02.
In the case of GGTACTACCG it was 1.03 ± 0.044.
Consider TTATGTGCTG, for which the switch fluorescence ratio stood at 1.02 ± 0.041.
For TTGAGGGGCA, the switch fluorescence ratio was 1.01 ± 0.033.
Turning to TTGAACTACT, the switch fluorescence ratio came to 1.03 ± 0.016.
As for ACTGCTAGGG, the switch fluorescence ratio is 1.02 ± 0.013.
As for ATAGTTGAGG, the switch fluorescence ratio was found to be 0.981 ± 0.02.
Regarding TACGGCAAAT, the switch fluorescence ratio came out at 1.121 ± 0.01.
In the case of CCCGGGAAAA, the switch fluorescence ratio was 0.943 ± 0.03.
As to TCGAACTGGG, the switch fluorescence ratio was 1.007 ± 0.0091.
As for CGACGGGGGG, the switch fluorescence ratio turned out to be 1 ± 0.017.
With AAAGTCGGGC, the switch fluorescence ratio was 0.946 ± 0.059.
Turning to GATTATATTT, the switch fluorescence ratio worked out at 0.997 ± 0.045.
On to GCTAGGGGA, for which the switch fluorescence ratio worked out at 1.02 ± 0.011.
On to TTTATCTTTG, for which the switch fluorescence ratio amounted to 1 ± 0.027.
Turning to AAAACTTTAT, the switch fluorescence ratio is 0.978 ± 0.013.
Turning to TTATGCATGA, the switch fluorescence ratio is 1 ± 0.047.
Take CAGATCTGAA: the switch fluorescence ratio was determined as 0.952 ± 0.07.
As to TTCCACAGGA, the switch fluorescence ratio was 1.15 ± 0.15.
Regarding TTGGGAGATT, the switch fluorescence ratio worked out at 0.971 ± 0.024.
Consider ATATTGACCG, for which the switch fluorescence ratio was found to be 1.03 ± 0.022.
Turning to TCGGTTTTTT, the switch fluorescence ratio amounted to 1.01 ± 0.038.
Consider ACACAGAGAG, for which the switch fluorescence ratio is 1.02 ± 0.033.
For the sequence CGGGTTGTCA, the switch fluorescence ratio was determined as 0.9969 ± 0.0072.
Regarding AGGGAAGGGA, the switch fluorescence ratio was 1 ± 0.013.
For the sequence TTGGCCGGG, the switch fluorescence ratio is 0.9643 ± 0.009.
For TTTTACATTC, the switch fluorescence ratio was found to be 1.03 ± 0.056.
Take TGGGGGAACA: the switch fluorescence ratio amounted to 0.989 ± 0.018.
Take CGTGTCCGTG: the switch fluorescence ratio was 1.01 ± 0.011.
Regarding CCGAGTGGGC, the switch fluorescence ratio came to 1.09 ± 0.012.
On to ATTTTTAGAG, for which the switch fluorescence ratio came to 1.01 ± 0.023.
Regarding TCGGCCCGTT, the switch fluorescence ratio was found to be 1.01 ± 0.018.
As for CCGGGGTGGC, the switch fluorescence ratio is 1.16 ± 0.11.
TAGGGGAACG: the switch fluorescence ratio worked out at 0.959 ± 0.0096.
On to GGGTTGGGAC, for which the switch fluorescence ratio was found to be 1.01 ± 0.051.
Turning to AGTTTGTGGG, the switch fluorescence ratio turned out to be 0.984 ± 0.0025.
In the case of GGAAGCGAAC, the switch fluorescence ratio was 1.47 ± 0.067.
For the sequence GAGGTGCATG, the switch fluorescence ratio was determined as 0.949 ± 0.024.
TTTTTTACGT: the switch fluorescence ratio was found to be 1.043 ± 0.0092.
In the case of TTCATCGTTT it was 0.968 ± 0.011; in that of GATGGCAGCA, 1.021 ± 0.0086; in that of GGAAGGGGAA, 1.01 ± 0.028.
With ATAATCCTGG, the switch fluorescence ratio came to 0.987 ± 0.011.
In the case of CACTAGCGGA it was 1.05 ± 0.023; in that of TACGATTTAT, 1.018 ± 0.0096; in that of TGGGTGTATC, 1.004 ± 0.0022.
Consider CATGCTACGG, for which the switch fluorescence ratio was 1.01 ± 0.016.
Take AGAGTGAGGG: the switch fluorescence ratio was 0.977 ± 0.0012.
For the sequence TGTTTCCTTT, the switch fluorescence ratio came to 1 ± 0.019.
GAGAGCCTTA: the switch fluorescence ratio came to 0.9853 ± 0.0079.
Consider TTAGTTGGGG, for which the switch fluorescence ratio amounted to 1.01 ± 0.032.
For TTAGGGGAGG, the switch fluorescence ratio worked out at 0.9925 ± 0.0098.
